These results are taken from patent publication US20230406942A1 (HORIZON THERAPEUTICS IRELAND DAC, published 2023).

Experiment [1] deals with T1, IGF-1R (coated on Maxisorp plates) (UniProt P08069 31-932, limits assumed).
T1 construct: also called the receptor
The experiment is described as follows: competition ELISA, plate-coated IGF-1R, antibody titrated against 20 ng/mL IGF-1 biotin. The protocol:
(§1) Maxisorp plates were coated with 1.5 ug/mL of IGF-1R overnight at 4° C. Plates were washed and blocked with 1% BSA. Subsequently, serially diluted anti-IGF1R antibodies were incubated for 30 min at room temperature followed by an incubation with a final concentration of 20 ng/mL IGF-1 biotin. Plates were washed and streptavidin-horseradish peroxidase was added. After a final wash, 3,3′,5,5′-Tetramethylbenzidine was added for 8 minutes. The reaction was terminated with a HCL based stop solution. Plates were measured for absorbance at 450 nm, and the data was analyzed using Softmax Pro 7.1 software.
For orientation: ELISA stands for enzyme-linked immunosorbent assay.

A further experiment concerns the target IGF-1R on NCI-H322 cells (UniProt P08069 31-1367, limits assumed). In words: cell-based or functional assay.
Experiment [2] concerns the target T1, IGF-1R (coated on Maxisorp plates). In words: competition ELISA, plate-coated IGF-1R, antibody titrated against 200 ng/mL IGF-2 biotin. As to the method:
as §1, with “of 200” for “of 20”, “ng/mL of IGF-2” for “ng/mL IGF-1”

In experiment [3] the target is T2, Human IGF-I R (Glu 31-Asn 932 with a polyhistidine tag at the C-terminus) (human, UniProt P08069 31-932).
T2 construct: range 31-932; Bought protein; captured on Ni-NTA biosensors for BLI; also called IGF1R; IGF-1R; not shown: C-terminal polyhistidine tag
T2 sequence (P08069 31-932 limits assumed): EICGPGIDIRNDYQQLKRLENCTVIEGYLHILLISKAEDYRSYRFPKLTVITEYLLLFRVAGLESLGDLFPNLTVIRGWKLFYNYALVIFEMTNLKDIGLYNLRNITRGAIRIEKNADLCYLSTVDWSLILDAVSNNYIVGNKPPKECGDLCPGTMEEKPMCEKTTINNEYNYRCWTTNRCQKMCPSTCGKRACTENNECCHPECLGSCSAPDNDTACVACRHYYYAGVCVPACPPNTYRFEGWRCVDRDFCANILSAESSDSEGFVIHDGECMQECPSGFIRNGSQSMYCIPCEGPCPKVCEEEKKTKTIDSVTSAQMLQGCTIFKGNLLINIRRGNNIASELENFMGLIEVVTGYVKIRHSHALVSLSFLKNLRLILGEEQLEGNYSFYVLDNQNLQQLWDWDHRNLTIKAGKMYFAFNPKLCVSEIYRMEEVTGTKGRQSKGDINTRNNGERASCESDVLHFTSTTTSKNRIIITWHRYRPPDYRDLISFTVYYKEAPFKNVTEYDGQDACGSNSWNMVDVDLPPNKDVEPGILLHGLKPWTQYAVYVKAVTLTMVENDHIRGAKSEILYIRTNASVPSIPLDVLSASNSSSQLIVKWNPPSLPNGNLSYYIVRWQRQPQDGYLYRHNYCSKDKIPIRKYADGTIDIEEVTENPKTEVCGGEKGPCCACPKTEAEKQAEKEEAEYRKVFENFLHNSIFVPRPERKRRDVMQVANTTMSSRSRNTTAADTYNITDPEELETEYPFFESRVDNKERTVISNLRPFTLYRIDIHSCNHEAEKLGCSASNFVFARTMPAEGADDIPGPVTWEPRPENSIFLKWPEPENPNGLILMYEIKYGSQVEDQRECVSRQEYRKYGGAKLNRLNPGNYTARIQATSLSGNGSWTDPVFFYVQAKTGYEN
The experiment is described as follows: BLI (Octet RED96e), His-tagged IGF-1R on Ni-NTA sensors, Fab 0-100 nM, 1:1 global fit. The source says: Human IGF-I R (Glu 31-Asn 932 with a polyhistidine tag at the C-terminus) expressed from human 293 cells (HEK293) was purchased from ACROBiosystems (Newark, DE). Dip and Read Ni-NTA (NTA) Biosensors from Sartorius (Bohemia, NY) pre-immobilized with nickel-charged Tris-NTA, were enabled for kinetic characterization of novel anti-human IGF-I R antibodies. Briefly, antibody variants were digested into purified Fab fragments (to enable 1:1 binding and global fitting). The Fab[…] Fab kit from GENOVIS (Cambridge, MA) was used to generate a monovalent binding Fab domain of each antibody variant, Fab fragments are subsequently separated from Fc using the CaptureSelect™ Fc column. Binding of variant Fabs to NTA-captured human IGF-I R (His-tagged) was monitored by biolayer interferometry (BLI) on an Octet RED96e (Sartorius). NTA biosensors were charged with 10 mM NiCl2, then loaded with His-tagged human IGF-I R at approximately 5 ug/mL to an average loading response of 0.67 nm shift. Variant Fabs were assayed from 0-100 nM in 10X kinetics buffer (1X PBS, 0.1% BSA, 0.02% Tween-20 plus Kathon as a preservative) from Sartorius. Binding kinetics and affinities were determined using the Octet Analysis Studio Software (Sartorius) by applying a 1:1 global fitting to double-referenced subtracted data.
For orientation: Biolayer interferometry detects binding as a change in optical thickness at a sensor tip.

T1 sequence (P08069 31-932 limits assumed): as above
Chain of IGF-1R on NCI-H322 cells (P08069 31-1367 limits assumed): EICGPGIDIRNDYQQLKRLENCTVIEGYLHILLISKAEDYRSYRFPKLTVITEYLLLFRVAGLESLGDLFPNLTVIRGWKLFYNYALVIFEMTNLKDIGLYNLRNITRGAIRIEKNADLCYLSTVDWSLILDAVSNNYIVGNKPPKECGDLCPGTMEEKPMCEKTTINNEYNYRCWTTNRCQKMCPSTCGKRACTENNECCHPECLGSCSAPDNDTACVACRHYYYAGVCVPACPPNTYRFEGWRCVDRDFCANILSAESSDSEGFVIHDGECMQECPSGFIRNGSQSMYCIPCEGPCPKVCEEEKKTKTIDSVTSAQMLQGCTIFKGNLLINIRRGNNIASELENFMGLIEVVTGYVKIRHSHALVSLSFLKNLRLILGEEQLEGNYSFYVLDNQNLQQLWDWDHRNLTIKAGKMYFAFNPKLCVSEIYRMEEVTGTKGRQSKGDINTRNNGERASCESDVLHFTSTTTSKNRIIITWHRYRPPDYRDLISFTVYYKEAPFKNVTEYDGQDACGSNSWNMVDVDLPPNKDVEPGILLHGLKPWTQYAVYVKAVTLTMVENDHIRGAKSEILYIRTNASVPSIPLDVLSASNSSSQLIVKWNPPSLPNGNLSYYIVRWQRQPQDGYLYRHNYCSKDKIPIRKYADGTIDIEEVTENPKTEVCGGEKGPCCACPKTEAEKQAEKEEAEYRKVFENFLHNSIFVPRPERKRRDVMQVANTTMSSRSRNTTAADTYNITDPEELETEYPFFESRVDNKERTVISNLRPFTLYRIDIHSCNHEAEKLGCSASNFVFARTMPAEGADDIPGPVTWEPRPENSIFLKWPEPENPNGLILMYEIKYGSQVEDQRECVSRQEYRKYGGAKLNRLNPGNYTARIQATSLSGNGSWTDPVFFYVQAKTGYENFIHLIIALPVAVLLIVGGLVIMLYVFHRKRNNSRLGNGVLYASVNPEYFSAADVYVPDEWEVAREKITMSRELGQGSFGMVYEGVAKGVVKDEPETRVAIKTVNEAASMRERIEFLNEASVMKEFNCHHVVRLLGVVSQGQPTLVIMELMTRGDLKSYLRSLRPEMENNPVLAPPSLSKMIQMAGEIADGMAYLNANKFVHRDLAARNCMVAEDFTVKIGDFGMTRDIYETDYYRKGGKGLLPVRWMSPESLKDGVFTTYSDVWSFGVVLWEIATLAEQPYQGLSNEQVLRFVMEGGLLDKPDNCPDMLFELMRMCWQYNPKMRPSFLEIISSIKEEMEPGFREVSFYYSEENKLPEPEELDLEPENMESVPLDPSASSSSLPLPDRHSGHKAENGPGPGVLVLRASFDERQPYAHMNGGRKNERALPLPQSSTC

B1: A11 antibody (antibody, V domains shown)
VH: QVELVESGGGVVQPGRSQRLSCAASGFTFSSYGMHWVRQAPGKGLEWVAYIWFDGSSTYYADSVRGRFTISRDNSKNTLYLQMNSLRAEDTAVYFCARELGRRYFDLWGRGTLVSVSS
VL: EIVLTQSPATLSLSPGERATLSCRASQSVSSYLAWYQQKPGQAPRLLIYDASKRATGIPARFSGSGSGTDFTLTISSLEPEDFAVYYCQQRSKYPPWTFGQGTKVESK
notes: Whole antibody
B1: the IC50 in experiment [1] came to 0.351 µg/mL; in experiment [2] it was 0.158 µg/mL. For the same molecule, the “Inhibition of Phosphorylation IC50” value with IGF-1R on NCI-H322 cells came to 0.0115 µg/mL.

B2: C10 antibody (antibody, V domains shown)
VH: QVELVESGGGVVQPGRSQRLSCAASGFTFSSAGMHWVRQAPGKGLEWVAIIWADGSSTYYADSVRGRFTISRDNSKNTLYLQMNSLRAEDTAVYFCARELGRRYFDLWGRGTLVSVSS
VL: EIVLTQSPATLSLSPGERATLSCRASQSVSSYLAWYQQKPGQAPRLLIYDASKRATGIPARFSGSGSGTDFTLTISSLEPEDFAVYYCQQRSKYPPWTFGQGTKVESK
Take B2: the “Inhibition of Phosphorylation IC50” value in the experiment with IGF-1R on NCI-H322 cells stood at 0.0065 µg/mL.

B3: B02 Fab (Fab, V domains shown)
VH: QVELVESGGGVVQPGRSQRLSCAASGFTFSSTGMHWVRQAPGKGLEWVAYIWFDGSSTYYADSVRGRFTISRDNSKNTLYLQMNSLRAEDTAVYFCARELNRRYFDLWGRGTLVSVSS
VL: EIVLTQSPATLSLSPGERATLSCRASQSVSSYLAWYQQKPGQAPRLLIYDASKRATGIPARFSGSGSGTDFTLTISSLEPEDFAVYYCQQRSKYPPWTFGQGTKVESK
In experiment [3], B3 showed a Kd of 1.54 nM, an off-rate (koff) of 0.00125 s⁻¹ and an association rate constant (kon) of 810000 M⁻¹ s⁻¹.

B4: A11 Fab (Fab, V domains shown)
VH: QVELVESGGGVVQPGRSQRLSCAASGFTFSSYGMHWVRQAPGKGLEWVAYIWFDGSSTYYADSVRGRFTISRDNSKNTLYLQMNSLRAEDTAVYFCARELGRRYFDLWGRGTLVSVSS
VL: EIVLTQSPATLSLSPGERATLSCRASQSVSSYLAWYQQKPGQAPRLLIYDASKRATGIPARFSGSGSGTDFTLTISSLEPEDFAVYYCQQRSKYPPWTFGQGTKVESK
In the case of B4, in experiment [3], binding was characterised by a dissociation constant (Kd) of 0.849 nM, the off-rate constant (koff) is 0.00076 s⁻¹ and the kon amounted to 895000 M⁻¹ s⁻¹.

B5: F02 Fab (Fab, V domains shown)
VH: QVELVESGGGVVQPGRSQRLSCAASGFTFSSHGMHWVRQAPGKGLEWVATIWFDGSSTYYADSVRGRFTISRDNSKNTLYLQMNSLRAEDTAVYFCARELGRRYFDLWGRGTLVSVSS
VL: EIVLTQSPATLSLSPGERATLSCRASQSVSSTLAWYQQKPGQAPRLLIYDASKRATGIPARFSGSGSGTDFTLTISSLEPEDFAVYYCQQRSKYPPWTFGQGTKVESK
In experiment [3], B5 came in with a Kd of 1.92 nM, an off-rate (koff) of 0.0023 s⁻¹ and an association rate constant (kon) of 1.2e+06 M⁻¹ s⁻¹.

B6: B02 antibody (antibody, V domains shown)
VH: QVELVESGGGVVQPGRSQRLSCAASGFTFSSTGMHWVRQAPGKGLEWVAYIWFDGSSTYYADSVRGRFTISRDNSKNTLYLQMNSLRAEDTAVYFCARELNRRYFDLWGRGTLVSVSS
VL: EIVLTQSPATLSLSPGERATLSCRASQSVSSYLAWYQQKPGQAPRLLIYDASKRATGIPARFSGSGSGTDFTLTISSLEPEDFAVYYCQQRSKYPPWTFGQGTKVESK
notes: Whole antibody
As for B6, the figures for the IC50 in experiment [1] and in experiment [2] were 0.386 µg/mL and 0.115 µg/mL, respectively. Also, in the experiment with IGF-1R on NCI-H322 cells, the “Inhibition of Phosphorylation IC50” value worked out at 0.0135 µg/mL.

B7: D10 antibody (antibody, V domains shown)
VH: QVELVESGGGVVQPGRSQRLSCAASGFTFSSYGMHWVRQAPGKGLEWVAIINFDGSSTYYADSVRGRFTISRDNSKNTLYLQMNSLRAEDTAVYFCARELGRRYFDLWGRGTLVSVSS
VL: EIVLTQSPATLSLSPGERATLSCRASQSVSSYLAWYQQKPGQAPRLLIYDASKRATGIPARFSGSGSGTDFTLTISSLEPEDFAVYYCQQRSKYPPWTFGQGTKVESK
In the case of B7, in the experiment with IGF-1R on NCI-H322 cells, the “Inhibition of Phosphorylation IC50” value turned out to be 0.0067 µg/mL.

B8: B10 Fab (Fab, V domains shown)
VH: QVELVESGGGVVQPGRSQRLSCAASGFTFSSYGMHWVRQAPGKGLEWVATIWFDGSSTYYADSVRGRFTISRDNSKNTLYLQMNSLRAEDTAVYFCARELGRRYFDLWGRGTLVSVSS
VL: EIVLTQSPATLSLSPGERATLSCRASQSVSSYLAWYQQKPGQAPRLLIYDASKRATGIPARFSGSGSGTDFTLTISSLEPEDFAVYYCQQRSKYPPWTFGQGTKVESK
In experiment [3], B8 came in with a Kd of 0.898 nM, a koff of 0.000826 s⁻¹ and an association rate constant (kon) of 921000 M⁻¹ s⁻¹.

B9: E01 Fab (Fab, V domains shown)
VH: QVELVESGGGVVQPGRSQRLSCAASGFTFSSYGMHWVRQAPGKGLEWVAIIWFDGSSTYYADSVRGRFTISRDNSKNTLYLQMNSLRAEDTAVYFCARELGRRYFDLWGRGTLVSVSS
VL: EIVLTQSPATLSLSPGERATLSCRASQSVSSYLAWYQQKPGQAPRLLIYDASKRATGIPARFSGSGSGTDFTLTISSLEPEDFAVYYCQQRSKYPPWTFGQGTKVESK
Turning to B9, in experiment [3], the affinity, expressed as Kd, was 0.179 nM; the off-rate constant (koff) came to 0.000298 s⁻¹; the kon was 2.66e+06 M⁻¹ s⁻¹.

B10: B09 antibody (antibody, V domains shown)
VH: QVELVESGGGVVQPGRSQRLSCAASGFTFSSHGMHWVRQAPGKGLEWVAIIAGDASTTYYADSVRGRFTISRDNSKNTLYLQMNSLRAEDTAVYFCARELGRRYFDLWGRGTLVSVSS
VL: EIVLTQSPATLSLSPGERATLSCRASQSVSSYLAWYQQKPGQAPRLLIYDASKRATGIPARFSGSGSGTDFTLTISSLEPEDFAVYYCQQRSKYPPWTFGQGTKVESK
notes: Whole antibody
Turning to B10, the IC50 in experiment [1] turned out to be 0.337 µg/mL; in experiment [2], 0.153 µg/mL. The “Inhibition of Phosphorylation IC50” value with IGF-1R on NCI-H322 cells was found to be 0.0083 µg/mL.

B11: D03 Fab (Fab, V domains shown)
VH: QVELVESGGGVVQPGRSQRLSCAASGFTFSSHGMHWVRQAPGKGLEWVAYIWFDGSSTYYADSVRGRFTISRDNSKNTLYLQMNSLRAEDTAVYFCARELGRRYFDLWGRGTLVSVSS
VL: EIVLTQSPATLSLSPGERATLSCRASQSVSSALAWYQQKPGQAPRLLIYDASKRATGIPARFSGSGSGTDFTLTISSLEPEDFAVYYCQQRSKYPPWTFGQGTKVESK
notes: also called clone D03
Take B11: in experiment [3], binding was characterised by a dissociation constant (Kd) of 0.407 nM, the koff turned out to be 0.000603 s⁻¹ and the kon was 1.48e+06 M⁻¹ s⁻¹.

B12: H11 Fab (Fab, V domains shown)
VH: QVELVESGGGVVQPGRSQRLSCAASGFTFSSYGMHWVRQAPGKGLEWVATIWHDGSSTYYADSVRGRFTISRDNSKNTLYLQMNSLRAEDTAVYFCARELGRRYFDLWGRGTLVSVSS
VL: EIVLTQSPATLSLSPGERATLSCRASQSVSSALAWYQQKPGQAPRLLIYDASKRATGIPARFSGSGSGTDFTLTISSLEPEDFAVYYCQQRGKYPPWTFGQGTKVESK
In experiment [3], B12 gave a Kd of 0.418 nM, a koff of 0.000744 s⁻¹ and an association rate constant (kon) of 1.78e+06 M⁻¹ s⁻¹.

B13: C10 Fab (Fab, V domains shown)
VH: QVELVESGGGVVQPGRSQRLSCAASGFTFSSAGMHWVRQAPGKGLEWVAIIWADGSSTYYADSVRGRFTISRDNSKNTLYLQMNSLRAEDTAVYFCARELGRRYFDLWGRGTLVSVSS
VL: EIVLTQSPATLSLSPGERATLSCRASQSVSSYLAWYQQKPGQAPRLLIYDASKRATGIPARFSGSGSGTDFTLTISSLEPEDFAVYYCQQRSKYPPWTFGQGTKVESK
As to B13, in experiment [3], binding was characterised by a dissociation constant (Kd) of 0.447 nM, the dissociation rate constant (koff) was 0.000485 s⁻¹ and the kon was 1.08e+06 M⁻¹ s⁻¹.

B14: B09 Fab (Fab, V domains shown)
VH: QVELVESGGGVVQPGRSQRLSCAASGFTFSSHGMHWVRQAPGKGLEWVAIIAGDASTTYYADSVRGRFTISRDNSKNTLYLQMNSLRAEDTAVYFCARELGRRYFDLWGRGTLVSVSS
VL: EIVLTQSPATLSLSPGERATLSCRASQSVSSYLAWYQQKPGQAPRLLIYDASKRATGIPARFSGSGSGTDFTLTISSLEPEDFAVYYCQQRSKYPPWTFGQGTKVESK
In experiment [3], B14 returned a Kd of 1.13 nM, a koff of 0.000799 s⁻¹ and an on-rate (kon) of 705000 M⁻¹ s⁻¹.

A word on the IC50: it is the midpoint of a concentration-inhibition curve. Lower therefore signals higher potency. Broadly, the Kd is the equilibrium constant for the complex coming apart. A lower Kd goes with a tighter complex. What is called koff is the rate constant with which the complex falls apart. Low values mean slow dissociation, high ones fast dissociation. In general, kon refers to the second-order rate constant of association. High values mean faster complex formation, low ones slower complex formation.
